Laboratory results: article PMC6137974, “FZP determines grain size and sterile lemma fate in rice”

Columns and labels:
FZP (FRIZZY PANICLE) [1] = biological target: T1, FZP (FRIZZY PANICLE) (Oryza sativa, UniProt Q8H3Q1 1-318); experiment: EMSA; 0.5, 1 and 1.5 ug protein; EMSA, 15 ul, 1 ug biotin probe, 0.5-1.5 ug protein, LightShift Chemiluminescent EMSA Kit (Thermo) binding buffer; salt, pH and temperature not stated; conditions: protein: recombinant; tags: His-SUMO (pET-SUMO); label: 5' biotin; blunt
FZP (FRIZZY PANICLE) [2] = biological target: T1, FZP (FRIZZY PANICLE); experiment: EMSA; 1.5 ug protein; EMSA, 15 ul, 1 ug biotin probe, 0.5-1.5 ug protein, LightShift Chemiluminescent EMSA Kit (Thermo) binding buffer; salt, pH and temperature not stated; conditions: protein: recombinant; tags: His-SUMO (pET-SUMO); label: 5' biotin; blunt

T1 sequence (Q8H3Q1 whole entry): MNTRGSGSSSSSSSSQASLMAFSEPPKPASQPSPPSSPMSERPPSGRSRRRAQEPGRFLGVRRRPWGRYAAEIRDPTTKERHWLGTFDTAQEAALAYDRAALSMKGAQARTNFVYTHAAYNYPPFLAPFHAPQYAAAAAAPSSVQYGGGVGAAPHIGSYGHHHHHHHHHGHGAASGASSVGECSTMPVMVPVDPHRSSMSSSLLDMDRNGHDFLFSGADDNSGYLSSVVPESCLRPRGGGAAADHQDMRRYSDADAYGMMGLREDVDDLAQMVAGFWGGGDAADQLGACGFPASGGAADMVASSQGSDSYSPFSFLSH

B1: DRE probe (3 repeats) (dsDNA)
DNA 1: ATACTACCGACATGAGATACTACCGACATGAGATACTACCGACATGAG
DNA 2: CTCATGTCGGTAGTATCTCATGTCGGTAGTATCTCATGTCGGTAGTAT
B1: binds (FZP (FRIZZY PANICLE) [1]).

B2: GCC-box probe (3 repeats) (dsDNA)
DNA 1: CATAAGAGCCGCCACTCATAAGAGCCGCCACTCATAAGAGCCGCCACT
DNA 2: AGTGGCGGCTCTTATGAGTGGCGGCTCTTATGAGTGGCGGCTCTTATG
B2: binds (FZP (FRIZZY PANICLE) [1]).

B3: mDRE probe (3 repeats) (dsDNA)
DNA 1: ATACGTCTTTGACGAGATACGTCTTTGACGAGATACGTCTTTGACGAG
DNA 2: CTCGTCAAAGACGTATCTCGTCAAAGACGTATCTCGTCAAAGACGTAT
B3: no binding (FZP (FRIZZY PANICLE) [2]).

B4: mGCC-box probe (3 repeats) (dsDNA)
DNA 1: CATAAGATACTTGACTCATAAGATACTTGACTCATAAGATACTTGACT
DNA 2: AGTCAAGTATCTTATGAGTCAAGTATCTTATGAGTCAAGTATCTTATG
B4: no binding (FZP (FRIZZY PANICLE) [2]).
